# Measured values: patent US20210332131A1 (TIGATX, published 2021)
# T1: CD20 (UniProt P11836 1-297, limits assumed)
# T1 construct: whole, on cells
# T1 sequence (looked up): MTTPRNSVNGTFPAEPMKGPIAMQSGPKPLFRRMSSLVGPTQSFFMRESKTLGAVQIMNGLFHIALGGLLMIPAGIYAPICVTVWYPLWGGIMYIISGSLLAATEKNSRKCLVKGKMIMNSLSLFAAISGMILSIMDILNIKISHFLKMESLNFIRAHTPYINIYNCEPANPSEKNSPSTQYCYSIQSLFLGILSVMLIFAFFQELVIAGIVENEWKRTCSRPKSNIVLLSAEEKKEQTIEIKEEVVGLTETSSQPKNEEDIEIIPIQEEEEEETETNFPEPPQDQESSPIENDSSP
# Legend:
# [1] = molecular target: T1, CD20; assay: flow cytometry, bispecific supernatant on SKBR3-CD20 cells, without or after pre-block of CD47 with m9, detection anti-IgA PE, GeoMFI; SKBR3 WT (CD20-) panel as comparison
# Experimental: (§1) After the pre-block the IgA antibodies were applied as described above. Samples were analyzed on a BD Canto II, and data has been analyzed using FlowJo (BD).
# Cells were fixed and measured by FACS.
# [2] = molecular target: T2, CD47 (human, UniProt Q08722 19-323); assay: flow cytometry, bispecific supernatant on SKBR3 WT (CD20-/CD47+) and SKBR3-CD20 cells, without or after pre-block of CD47 with mIgG1 anti-CD47 PerCP-Cy5.5, detection anti-IgA PE, GeoMFI
# T2 construct: whole, on cells; also called Cluster of Differentiation 47; human CD47
# T2 sequence (Q08722 19-323): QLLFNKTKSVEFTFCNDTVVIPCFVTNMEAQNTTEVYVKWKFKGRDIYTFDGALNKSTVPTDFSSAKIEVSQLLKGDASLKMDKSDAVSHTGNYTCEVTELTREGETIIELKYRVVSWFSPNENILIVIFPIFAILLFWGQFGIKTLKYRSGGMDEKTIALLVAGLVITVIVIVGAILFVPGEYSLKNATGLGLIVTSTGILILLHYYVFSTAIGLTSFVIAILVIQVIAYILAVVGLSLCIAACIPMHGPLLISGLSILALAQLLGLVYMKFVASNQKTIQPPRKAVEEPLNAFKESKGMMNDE
# Experimental: as §1
# Cells were fixed and measured by FACS.
# [3] = molecular target: T2, CD47; assay: flow cytometry on human erythrocytes (CD235a+), bispecific supernatant, detection anti-human IgA, % positive cells
# Experimental: A Histopaque/ficoll isolation was performed to separate the erythrocytes from the PMN/PBMC. Plasma, PBMC, ficoll, histopaque and PMN have been discarded. The remaining pellet of erythrocytes were washed in PBS, spun for 5 minutes at 2400 rpm and pellet was resuspended in 5 mL PBS. […] Dilutions are done in FACS buffer (1% BSA in PBS). Incubated for 30 minutes at RT in the dark, excess unbound antibody was washed away with FACS buffer. 40 uL was added in FACS buffer diluted detection antibody (goat F(ab)′2 anti-human IgA-FITC (Southern Biotech; dilution 1:100), incubated for 30 minutes at RT in the dark, excess unbound antibody was washed away with FACS buffer. Samples were fixed by adding 1% PFA to pelleted cells. Measure on Canto II (BD), gating on CD235-positive events.
# [4] = molecular target: T2, CD47; assay: flow cytometry on SKBR3 WT cells (CD20-/CD47+), detection anti-IgA PE, GeoMFI
# Experimental: as §1
# [5] = molecular target: T2, CD47; assay: flow cytometry on SKBR3 WT cells (CD20-/CD47+), detection anti-IgA PE
# Experimental: as §1
Binder,binding result [1],other results
"DVD-IgA scFv_HC bispecific antibody #3 (5A3M5-scFv: Obi_HC) (bispecific antibody, Tetravalent homodimer; 5A3M5 (CD47) scFv on the Obinituzumab heavy chain; Tested as raw HEK293F supernatant) heavy: not shown light: DIVMTQTPLSLPVTPGEPASISCRSSKSLLHSNGITYLYWYLQKPGQSPQLLIYQMSNLVSGVPDRFSGSGSGTDFTLKISRVEAEDVGVYYCAQNLELPYTFGGGTKVEIKRTVAAPSVFIFPPSDEQLKSGTASVVCLLNNFYPREAKVQWKVDNALQSGNSQESVTEQDSKDSTYSLSSTLTLSKADYEKHKVYACEVTHQGLSSPVTKSFNRGEC",binds,
"DVD-IgA scFv_LC bispecific antibody #6 (Obi-scFv: 2.3D11_LC) (bispecific antibody, Tetravalent homodimer; Obinituzumab (CD20) scFv on the 2.3D11 light chain; also called bispecific #6) heavy: QVQLQESGPGLVKPSGTLSLTCAVSGVSIRSINWWNWVRQPPGKGLEWIGEIYHSGSTNYNPSLKSRVTISVDKSKNQFSLKLNSVTAADTAVYYCARDGGIAVTDYYYYGLDVWGQGTTVTVSSASPTSPKVFPLSLDSTPQDGNVVVACLVQGFFPQEPLSVTWSESGQGVTARNFPPSQDASGDLYTTSSQLTLPATQCPDGKSVTCHVKHYTNPSQDVTVPCRVPPPPPCCHPRLSLHRPALEDLLLGSEANLTCTLTGLRDASGATFTWTPSSGKSAVQGPPERDLCGCYSVSSVLPGSAQPWNHGETFTCTAAHPELKTPLTATLSKSGNTFRPEVHLLPPPSEELALNELVTLTCLARGFSPKDVLVRWLQGSQELPREKYLTWASRQEPSQGTTTFAVTSILRVAAEDWKKGDTFSCMVGHEALPLAFTQKTIDRLAGK light: not shown",binds,
"DVD-IgA bispecific antibody #1 (5A3M5-Obi) (bispecific antibody, Tetravalent homodimer, outer domain CD47 (5A3M5), inner domain CD20 (Obinituzumab)) heavy: not shown light: DIQMTQSPSSLSASVGDRVTITCQASQDINKYLNWYQQKPGKAPKLLIYGASRLETGVPSRFSGSGSGTDFTFTISSLQPEDIATYYCQQKHPRYPRTFGQGTKVEIKSGGGGSDIVMTQTPLSLPVTPGEPASISCRSSKSLLHSNGITYLYWYLQKPGQSPQLLIYQMSNLVSGVPDRFSGSGSGTDFTLKISRVEAEDVGVYYCAQNLELPYTFGGGTKVEIKRTVAAPSVFIFPPSDEQLKSGTASVVCLLNNFYPREAKVQWKVDNALQSGNSQESVTEQDSKDSTYSLSSTLTLSKADYEKHKVYACEVTHQGLSSPVTKSFNRGEC",binds,binding result [2]: no binding
"DVD-IgA bispecific antibody #2 (Obi-2.3D11) (bispecific antibody, Tetravalent homodimer, outer domain CD20 (Obinituzumab), inner domain CD47 (2.3D11); also called DVD-IgA Obi-2.3D11) heavy: QVQLVQSGAEVKKPGSSVKVSCKASGYAFSYSWINWVRQAPGQGLEWMGRIFPGDGDTDYNGKFKGRVTITADKSTSTAYMELSSLRSEDTAVYYCARNVFDGYWLVYWGQGTLVTVSSSGGGGSQVQLQESGPGLVKPSGTLSLTCAVSGVSIRSINWWNWVRQPPGKGLEWIGEIYHSGSTNYNPSLKSRVTISVDKSKNQFSLKLNSVTAADTAVYYCARDGGIAVTDYYYYGLDVWGQGTTVTVSSASPTSPKVFPLSLDSTPQDGNVVVACLVQGFFPQEPLSVTWSESGQGVTARNFPPSQDASGDLYTTSSQLTLPATQCPDGKSVTCHVKHYTNPSQDVTVPCRVPPPPPCCHPRLSLHRPALEDLLLGSEANLTCTLTGLRDASGATFTWTPSSGKSAVQGPPERDLCGCYSVSSVLPGSAQPWNHGETFTCTAAHPELKTPLTATLSKSGNTFRPEVHLLPPPSEELALNELVTLTCLARGFSPKDVLVRWLQGSQELPREKYLTWASRQEPSQGTTTFAVTSILRVAAEDWKKGDTFSCMVGHEALPLAFTQKTIDRLAGK light: not shown",binds,
"DVD-IgA scFv_HC bispecific antibody #4 (Obi-scFv: 2.3D11_HC) (bispecific antibody, Tetravalent homodimer; Obinituzumab (CD20) scFv on the 2.3D11 heavy chain; Tested as raw HEK293F supernatant; also called bispecific #4) heavy: QVQLVQSGAEVKKPGSSVKVSCKASGYAFSYSWINWVRQAPGQGLEWMGRIFPGDGDTDYNGKFKGRVTITADKSTSTAYMELSSLRSEDTAVYYCARNVFDGYWLVYWGQGTLVTVSSGGGGSGGGGSGGGGSDIVMTQTPLSLPVTPGEPASISCRSSKSLLHSNGITYLYWYLQKPGQSPQLLIYQMSNLVSGVPDRFSGSGSGTDFTLKISRVEAEDVGVYYCAQNLELPYTFGGGTKVEIKSGGGGSQVQLQESGPGLVKPSGTLSLTCAVSGVSIRSINWWNWVRQPPGKGLEWIGEIYHSGSTNYNPSLKSRVTISVDKSKNQFSLKLNSVTAADTAVYYCARDGGIAVTDYYYYGLDVWGQGTTVTVSSASPTSPKVFPLSLDSTPQDGNVVVACLVQGFFPQEPLSVTWSESGQGVTARNFPPSQDASGDLYTTSSQLTLPATQCPDGKSVTCHVKHYTNPSQDVTVPCRVPPPPPCCHPRLSLHRPALEDLLLGSEANLTCTLTGLRDASGATFTWTPSSGKSAVQGPPERDLCGCYSVSSVLPGSAQPWNHGETFTCTAAHPELKTPLTATLSKSGNTFRPEVHLLPPPSEELALNELVTLTCLARGFSPKDVLVRWLQGSQELPREKYLTWASRQEPSQGTTTFAVTSILRVAAEDWKKGDTFSCMVGHEALPLAFTQKTIDRLAGK light: not shown",binds,binding result [3]: binds
"DVD-IgA scFv_LC bispecific antibody #5 (5A3M5-scFv: Obi_LC) (bispecific antibody, Tetravalent homodimer; 5A3M5 (CD47) scFv on the Obinituzumab light chain) heavy: QVQLVQSGAEVKKPGSSVKVSCKASGYAFSYSWINWVRQAPGQGLEWMGRIFPGDGDTDYNGKFKGRVTITADKSTSTAYMELSSLRSEDTAVYYCARNVFDGYWLVYWGQGTLVTVSSASPTSPKVFPLSLDSTPQDGNVVVACLVQGFFPQEPLSVTWSESGQGVTARNFPPSQDASGDLYTTSSQLTLPATQCPDGKSVTCHVKHYTNPSQDVTVPCRVPPPPPCCHPRLSLHRPALEDLLLGSEANLTCTLTGLRDASGATFTWTPSSGKSAVQGPPERDLCGCYSVSSVLPGSAQPWNHGETFTCTAAHPELKTPLTATLSKSGNTFRPEVHLLPPPSEELALNELVTLTCLARGFSPKDVLVRWLQGSQELPREKYLTWASRQEPSQGTTTFAVTSILRVAAEDWKKGDTFSCMVGHEALPLAFTQKTIDRLAGK light: not shown",binds,
"2.3D11-IgA2 (antibody, V domains shown, May be the same as IgA3.0-2.3D11; also called bivalent monospecific antibody 2.3D11; anti-CD47 antibody 2.3D11) VH: QVQLQESGPGLVKPSGTLSLTCAVSGVSIRSINWWNWVRQPPGKGLEWIGEIYHSGSTNYNPSLKSRVTISVDKSKNQFSLKLNSVTAADTAVYYCARDGGIAVTDYYYYGLDVWGQGTTVTVSS VL: EIVLTQSPATLSLSPGERATLSCRASESVSSNLAWYQQKPGQAPRLLIYGAFNRATGIPARFSGSGSGTDFTLTISSLEPEDFAVYYCQQRSDWFTFGGGTKVEIK",,binding result [4]: binds
"Obi-IgA3.0 (antibody, V domains shown, Monospecific anti-CD20 IgA3.0 control; also called IgA3.0-Obi; anti-CD20 Obi antibody) VH: QVQLVQSGAEVKKPGSSVKVSCKASGYAFSYSWINWVRQAPGQGLEWMGRIFPGDGDTDYNGKFKGRVTITADKSTSTAYMELSSLRSEDTAVYYCARNVFDGYWLVYWGQGTLVTVSS VL: DIVMTQTPLSLPVTPGEPASISCRSSKSLLHSNGITYLYWYLQKPGQSPQLLIYQMSNLVSGVPDRFSGSGSGTDFTLKISRVEAEDVGVYYCAQNLELPYTFGGGTKVEIKR",,"binding result [5]: no binding (tested: 1 ug/mL (from paragraph 462, not on the sheet))"
